# Test results as given in patent publication US12617818.
# Molecular target: Rabbit skeletal myosin (rabbit)
# Test: cell-based or functional assay
# Sequence of Rabbit skeletal myosin (Q28641 whole entry): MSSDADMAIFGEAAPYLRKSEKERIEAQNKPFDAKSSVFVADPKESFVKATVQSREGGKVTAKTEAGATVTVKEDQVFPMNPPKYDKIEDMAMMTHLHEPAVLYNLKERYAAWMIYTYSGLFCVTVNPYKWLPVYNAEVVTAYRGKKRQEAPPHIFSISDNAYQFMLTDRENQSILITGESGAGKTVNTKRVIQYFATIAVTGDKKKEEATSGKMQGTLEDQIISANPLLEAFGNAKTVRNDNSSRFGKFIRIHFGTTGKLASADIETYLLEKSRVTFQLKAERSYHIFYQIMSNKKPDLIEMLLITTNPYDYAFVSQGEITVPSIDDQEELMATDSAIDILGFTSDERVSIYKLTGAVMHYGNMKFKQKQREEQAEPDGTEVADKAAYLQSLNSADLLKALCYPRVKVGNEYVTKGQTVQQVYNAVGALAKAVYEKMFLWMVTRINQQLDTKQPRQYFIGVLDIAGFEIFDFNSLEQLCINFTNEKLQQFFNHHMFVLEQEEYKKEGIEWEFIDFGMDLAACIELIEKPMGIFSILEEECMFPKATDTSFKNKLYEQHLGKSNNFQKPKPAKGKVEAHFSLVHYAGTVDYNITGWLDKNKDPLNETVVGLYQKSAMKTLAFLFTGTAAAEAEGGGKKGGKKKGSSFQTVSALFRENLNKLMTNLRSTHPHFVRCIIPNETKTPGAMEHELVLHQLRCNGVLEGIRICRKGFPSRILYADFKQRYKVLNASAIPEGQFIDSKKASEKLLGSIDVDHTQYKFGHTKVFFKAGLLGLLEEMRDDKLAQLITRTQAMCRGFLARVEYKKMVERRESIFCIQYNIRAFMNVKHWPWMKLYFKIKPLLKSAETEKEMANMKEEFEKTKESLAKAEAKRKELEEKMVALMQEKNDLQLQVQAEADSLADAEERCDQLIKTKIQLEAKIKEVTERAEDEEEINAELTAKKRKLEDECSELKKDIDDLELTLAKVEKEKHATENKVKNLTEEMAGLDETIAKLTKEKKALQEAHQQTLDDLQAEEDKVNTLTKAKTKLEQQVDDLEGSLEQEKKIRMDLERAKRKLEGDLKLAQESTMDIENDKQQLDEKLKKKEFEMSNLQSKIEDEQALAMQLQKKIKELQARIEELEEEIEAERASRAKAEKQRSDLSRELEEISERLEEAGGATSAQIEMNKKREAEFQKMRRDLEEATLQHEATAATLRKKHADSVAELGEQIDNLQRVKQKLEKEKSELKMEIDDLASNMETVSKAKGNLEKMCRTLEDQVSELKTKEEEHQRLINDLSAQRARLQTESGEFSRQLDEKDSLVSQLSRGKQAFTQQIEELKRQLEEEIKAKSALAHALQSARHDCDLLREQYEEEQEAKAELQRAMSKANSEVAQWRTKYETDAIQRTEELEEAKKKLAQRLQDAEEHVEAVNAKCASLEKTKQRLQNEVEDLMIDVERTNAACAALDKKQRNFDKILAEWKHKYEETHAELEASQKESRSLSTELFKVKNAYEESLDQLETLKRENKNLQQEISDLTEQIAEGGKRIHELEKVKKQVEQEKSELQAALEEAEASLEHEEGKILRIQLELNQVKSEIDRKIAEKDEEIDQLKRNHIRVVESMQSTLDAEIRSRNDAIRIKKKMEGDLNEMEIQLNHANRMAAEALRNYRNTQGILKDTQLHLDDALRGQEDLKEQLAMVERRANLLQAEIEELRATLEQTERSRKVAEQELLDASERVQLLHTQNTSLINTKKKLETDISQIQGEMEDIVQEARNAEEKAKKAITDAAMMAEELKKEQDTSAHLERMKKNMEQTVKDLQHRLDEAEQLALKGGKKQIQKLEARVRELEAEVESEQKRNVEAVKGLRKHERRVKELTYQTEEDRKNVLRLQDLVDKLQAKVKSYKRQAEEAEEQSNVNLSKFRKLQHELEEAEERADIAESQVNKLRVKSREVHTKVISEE
# Sequence of Rabbit skeletal myosin (P02602 2-192, further chain): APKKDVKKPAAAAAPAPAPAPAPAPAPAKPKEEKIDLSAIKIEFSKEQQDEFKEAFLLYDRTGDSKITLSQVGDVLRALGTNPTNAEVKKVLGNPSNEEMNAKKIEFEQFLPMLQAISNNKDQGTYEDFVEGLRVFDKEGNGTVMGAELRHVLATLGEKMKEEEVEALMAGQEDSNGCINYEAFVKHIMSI
# Sequence of Rabbit skeletal myosin (P02608 2-170, further chain): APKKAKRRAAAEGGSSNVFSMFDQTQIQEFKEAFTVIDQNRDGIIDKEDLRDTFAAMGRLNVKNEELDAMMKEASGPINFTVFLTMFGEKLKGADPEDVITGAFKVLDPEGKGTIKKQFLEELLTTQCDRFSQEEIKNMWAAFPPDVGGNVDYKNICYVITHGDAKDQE
Substance,in vitro motility: reduction of the motility of actin thin filaments over skeletal myosin thick filaments treated with MyBPC,"GFS: force at an uncoiled length of 138 nm, control without antibody","GFS: force to uncoil the myosin molecule for a length of 50 nm, no stabilizer (control)","GFS: force to uncoil the myosin molecule for a length of 60 nm, tethered by S1 heads to G-actin (control)","GFS: force to uncoil the myosin molecule to a length of 100 nm, no destabilizer (control)"
"Myosin binding protein C (MyBPC), whole length skeletal",22%,,,,
Rabbit skeletal myosin,,4.8 pN,3.62 pN,2.67 pN,4.92 pN
